In patent publication US8217137B2, “Fullerene-based amino acids” (William Marsh Rice University, priority 2004, dated 2012):
Square brackets hold non-standard residues; d marks the D form. Ends that are not written are not given here. BAA = bucky amino acid

Tested on: Rat maxillary incisor pulp cells (RPC-C2A)
Experiment: Cell viability assay (Live-Dead Assay Kit), cytotoxicity of fullerene peptide
Assay type: cell-based
Conditions: 4, 40 and 400 μM peptide solutions in PBS, 100 μL mixed with 1.9 mL medium, 48 hrs incubation, Calcein AM / EthD-1
Protocol: Rat maxillary incisor pulp cells (RPC-C2A) were seeded on a 24-well tissue culture plate at 3540 cells per well and incubated for 24 hr at 37° C. in a 5% CO2 environment. Dulbecco's Modified Eagle's Medium (DMEM; Invitrogen, NY) was prepared with 10% fetal bovine serum (FBS; BioWhitaker, Walkersville, Md.), 2 mM Amphothericin B, 1 unit/ml penicillin, and 100 mg/l streptomycin (Invitrogen, NY). Three different concentrations of Fullerene peptide solutions (4, 40, and 400 μM) were prepared in PBS and sterilized using 0.2 μm filter syringe. 100 μL of the solution was mixed with 1.9 mL of medium and added to cells. Control was also prepared by adding PBS buffer solution without peptide-modified fullerene to cells. After 48 hrs of incubation, cell viability was determined using Live-Dead Assay Kit (Molecular Probes, Inc., Eugene, Oreg.). Calcein AM is converted to a green fluorescent product within live cells due to enzymatic activity, while ethidium homodimer-1, a red fluorescent compound, accumulates in dead cells due to increased membrane permeability. After removing medium, cells were rinsed with PBS solution twice. Cells in each well was incubated with 0.4 mL of 4 μM EthD-1 and 2 μM of Calcein AM in PBS for 30 min and observed under fluorescent microscope.
For the statistical analysis, the data were compared with two-tailed, unpaired t-tests. […]

“BAA-Glu-Glu-Glu-Glu-Gly-Gly-Gly-Ser-COOH ([BAA]EEEEGGGS-OH) [fullerene-based peptide, peptide with a bucky amino acid (BAA) at the N-terminus]” was tested, and the “toxicity to the cells (cell viability)” value was “no toxicity”.
